Key:
[1] = target: IL2Rβ and common γ chain on 32Dβ cells; experiment: cell-based or functional assay
TGFβ1 (R&D systems) = TGFβ1 (R&D systems) (UniProt P01137); experiment: cell-based or functional assay
UniProt P01137, sequence (P01137 279-390 limits assumed): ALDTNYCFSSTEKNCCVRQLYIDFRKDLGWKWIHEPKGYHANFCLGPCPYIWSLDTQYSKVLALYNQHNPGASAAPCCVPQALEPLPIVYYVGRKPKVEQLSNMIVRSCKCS

Row | EC50, 32Dβ cell proliferation (WST1, absorbance at 450 nM) [1] [nM] | IC50, inhibition of TGFβ1 activity in HEK-Blue TGFβ cells (QUANTI-Blue OD 620-655 nM) (TGFβ1 (R&D systems)) [nM] | Substance
1 | 0.0106 |  | recombinant IL-15 (from UniProt P40933 49-162) (ligand)
2 |  | 0.461 | TGFR-Fc (R&D Systems) (from UniProt P37173 24-159) (Fc fusion)

Source: patent US20260174833A1
